30 sequences from the nanobody polyreactivity screen of Harvey et al. (2022) can be followed below.

The series is described as follows: yeast display, Sf9 membrane polyspecificity reagent, FACS + sequencing; frameworks hold sequencing errors. The essentials: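 Nanobodies from a synthetic yeast display library (Saccharomyces cerevisiae BJ5465), induced 36–48 hours with galactose, were stained 1 hour at 4 °C with 10% biotinylated, detergent-solubilized Sf9 membrane reagent, enriched on streptavidin microbeads, then FACS-sorted. Anti-HA (expression) and streptavidin (reagent binding) fluorescence set low and high (top ~1%) gates. Polyreactivity labels come from the gate of origin. Genes were colony-PCR amplified, MiSeq 2 × 250 sequenced and filtered by CDR length.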
With “QVQLVESGGGLVQAGGSLRLSCAACGRTFRGYAMGWYRQAPGKERELVAAITSGGSTYYADSVKGRFTISRDNAKNTDFLEMNSLKPEDTAVYYCNKLYYSGKPRFRYDYWGQGTQVTVSS”, the “polyreactivity (PSR sort gate)” value is “high polyreactivity”. Turning to “QVQLVESGGGLVQAGGSLRLSCAACGSIFIGNAMGWYRQAPGKERELVAVISKGGGRTYYADSVKGRFTISRDNAKNTVYLKMNSLKPEDTAVYFCNTRNPESGDYWGQGTQVTVSS”, the “polyreactivity (PSR sort gate)” value is on record as “high polyreactivity”.

With “QVQLVESGGGLVQAGGSLRLSCAACGSIFRRYAMGWYRQAPGKERELVASIRGGGGTYYADSVKGRFTISRDNAKNTVYLQMNSLKPEDTAVYYCAATRYLAYFRKSFYYWGQGTQVTVSS”, the “polyreactivity (PSR sort gate)” value is listed as “high polyreactivity”.

As for “QVQLVESGGGLVQAGGSLRLSCAACGSTFLYYAMGWYRQAPGKERELVAGISWDGTSTYYADSVKGRFTISRDNAKNSVYLQMNSLKPEDTAVYYCAAFGWSRVYHWRFEWGQGTQVTVSS”, the “polyreactivity (PSR sort gate)” value is reported as “low polyreactivity”.

In the case of “QVQLVESGGGLVQAGGSLRLSCAACGSTFYGHAMGWYRQAPGKRELVAAITWSGGSTYYADSVKGRFTISRDNAKNTVYLQMNSLKPEDTAVYYCAADRRNNNGASGTRLDYWGQGTQVTVSS”, the “polyreactivity (PSR sort gate)” value was “low polyreactivity”. For the sequence “QVQLVESGGGLVQAGGSLRLSCAAPGSIFPRYAMGWYRQAPGKERELVAAISRSGGSTYYADSVKGRFTISRDNAKNTVSLQRNSLKPEDTAVYYCATDKVSHRRYDYWGQGTQVTVSS”, the “polyreactivity (PSR sort gate)” value is reported as “high polyreactivity”. To “QVQLVESGGGLVQAGGSLRLSCAASAFIFIIYAMGWYRQAPGKERELVAGIRWSGGSTYYADSVKGRFTISRDNAKNTVYLQMNSLKQEDTAVYYCNKDRGSLTLYTYDYWGQGTQVTVSS” belongs “low polyreactivity”; to “QVQLVESGGGLVQAGGSLRLSCAASAFTFGYYAMGWYIQAPGKERELVAAISSGGNTNYADSVKGRFTISRDNAKNTVYLQMNSLKPEDTAVYYCNRRSWRYYKTYSAFNYWGQGSQVTVSS”, “high polyreactivity”; to “QVQLVESGGGLVQAGGSLRLSCAASAFTFQNYAMGWYRQAPGKERELVAAIDSRGGRTYYADSVKGRFTISRDNAKNTVYLQMNSLKPEDTADDYCAVAENSRFGSVGYYYWGQGTQVTVSS”, “low polyreactivity”. As for “QVQLVESGGGLVQAGGSLRLSCAASAGTFNHYAMGWSRQEPGKERELVASITNGASTYYADSVKGRFTISRDNAKNTVYLQMNILKPEDTAVYYCAKRGRVGKYRYEYWGQGTLVTVSS”, the “polyreactivity (PSR sort gate)” value was “low polyreactivity”.

Regarding “QVQLVESGGGLVQAGGSLRLSCAASAIIFRFYAMGWYRQAPGKERELVPAISSGGSTYYADSVKGRFTISRDNAKNTVYLQMNSLKPEDTAVYYCNARVRYKRTGRYGYWGQGTQVTVSS”, the “polyreactivity (PSR sort gate)” value was “high polyreactivity”. As to “QVQLVESGGGLVQAGGSLRLSCAASALTFRVYAMGWYRQAPGKERELVAAISFSGSSTFYADSVKGRFTISRDNAKNTVYLQMNSMKPEDTAVYYCAAGASEAVDVYDYWGQGTQVTVSS”, the “polyreactivity (PSR sort gate)” value is “low polyreactivity”. The value for “QVQLVESGGGLVQAGGSLRLSCAASARTFSAYAMGWYRPAPGKERELVARITSVDSTNYADSVKGRFTISRDNAKNTVYLQMNSLKPEDTAVYYCNATFGYPFVDYDDYWGQGTQVTVSS” was “low polyreactivity”. As for “QVQLVESGGGLVQAGGSLRLSCAASARTFWAYAMGWYRQATGKEREWVAAITSSGTRTYYADSVKGRFTISRDNAKNTVYLKMNSLKPEDTAGYYCAAERIWLAHAYPTYVANDYWGQGTQVTVSS”, the “polyreactivity (PSR sort gate)” value is “high polyreactivity”. Regarding “QVQLVESGGGLVQAGGSLRLSCAASASIFAYNAMGWYRQAPGKERELVAAISYSGASTYYADSVKGRFTISRDYAKNTVYLQMNSLKPEDTAVYYCAATSRRRGTKGYWQVWPRFDYWGQGTQVTVSS”, the “polyreactivity (PSR sort gate)” value was “high polyreactivity”. Turning to “QVQLVESGGGLVQAGGSLRLSCAASASIFYIYAKGSYRQAPGKARELVAVIRNGGRTNYADSVKGRFTISRDNAKNTVYFQMNSLKPEDTAVYYCAARPRHVTRFDYWGQGTQVTVSS”, the “polyreactivity (PSR sort gate)” value is recorded as “high polyreactivity”.

In the case of “QVQLVESGGGLVQAGGSLRLSCAASASIYPYAMGWYRQAPGKERELVAAITRSGASTYYADSVKGRFTISRDNAKNTVYLQMNSMKPEDTAVYYCAAYALRGVRYPYRVDFYYWGQGTQVTVSS”, the “polyreactivity (PSR sort gate)” value is “high polyreactivity”.

Regarding “QVQLVESGGGLVQAGGSLRLSCAASASNIIGYAMGWYRQAPGKERELVAAITSGSITNYADSVKGRFTISRDTAKNTVYLQMNSLKPEDTAVYYCNADVNFIDDDYWGQGTQVTVSS”, the “polyreactivity (PSR sort gate)” value was “low polyreactivity”. Take “QVQLVESGGGLVQAGGSLRLSCAASASTFAGYVMGWYRPAPGKERELVAAISVSGGSTDYADSVKGRFTISRDNAKNTVYLQMNSLKPEDTAVYYCAAVYVRNQWWRNYYWGQGTQVTVSS”: the “polyreactivity (PSR sort gate)” value is “low polyreactivity”. Regarding “QVQLVESGGGLVQAGGSLRLSCAASASTFYLYAMGWYRQAPGKERELVAAISRGGTTYYADSVKGRFTISRDNEKNSVYLQMNSLKPEDTAVYYCNKLRRYSEYNADYGDYWGQGTQVTVSS”, the “polyreactivity (PSR sort gate)” value is listed as “high polyreactivity”. Turning to “QVQLVESGGGLVQAGGSLRLSCAASASTIIRNAMGWYRQAPGKERELVAAISTSGGRTHYADSVKGRFTISRDNAKNTVYLQMNSLKPEDTAVYYCDTRGKGHYYYWGQGTQVTVSS”, the “polyreactivity (PSR sort gate)” value is “high polyreactivity”. For “QVQLVESGGGLVQAGGSLRLSCAASDTPSSSMLMGWYRQAPGKERELVAAISGSDGTTYYADSVKVRFTISRDNAKNTVYLQMNSLKPEDTAVYYCAADDRVYSGYIKDDYWGQGTQVTVSS”, the “polyreactivity (PSR sort gate)” value is reported as “low polyreactivity”. For “QVQLVESGGGLVQAGGSLRLSCAASGAIFDSNAMGWYREAPGTERELVASIDRGGDTNYADSVKGRFTISRDNAKNTVYLQMNSLKPEDTAVYYCAAYYYKWVWIGMDYWGQGTQVTVSS”, the “polyreactivity (PSR sort gate)” value is on record as “low polyreactivity”. The value for “QVQLVESGGGLVQAGGSLRLSCAASGAIFELNAMGWYRQAPGKERELVAAIRWRTGRTYYADSVKGRFTISRDNAKNTVYLQMNSLKPEDTAVYYCAAPVRSGVRYTLDYWGQGTQVTVSS” was “high polyreactivity”; that for “QVQLVESGGGLVQAGGSLRLSCAASGAIFFSYAMGWYRQAPGKERELVAAIRTNGGTTYYADSVKGRFTISRDNAKNTVYLQMNSLKPEDTAVYYCAALPGGYYDRGEYDYWGQGTQVTVSS” was “low polyreactivity”; that for “QVQLVESGGGLVQAGGSLRLSCAASGAMGWYRQAPGKERELVAAITQSGGSTRYADSVKGRFTISRDNAKNTVYLQMNSLKPEDTAVYYCKAEDPREWDPYYQDGFDFWGQGTQVTVSS” was “low polyreactivity”. To “QVQLVESGGGLVQAGGSLRLSCAASGCIFAHNAMGWYRQAPGKERELVAASTYYADSVKGRFTISRDNAKNTVYLQMNSLKPEDTAVYYCAKRTRFSPGHDYWGQGTQVTVSS” belongs “high polyreactivity”. For “QVQLVESGGGLVQAGGSLRLSCAASGCIFASYPMGWYRPAPGTERELVAAISRAGSTYYADSVKGRFTISRDNAKNTDYLQMNSLKPEDTAVYYCNADFNWGYNYWGQGTQVTGSS”, the “polyreactivity (PSR sort gate)” value was “high polyreactivity”. To “QVQLVESGGGLVQAGGSLRLSCAASGCIFVSHAMGWYRQAPGKERELVAAITSGDNTKYADSVKGRFTISRDNAKNTVYLQMNSLKPEDTAVYYCAVTYRYQGAGYYWGQGTQVTVSS” belongs “low polyreactivity”. The value for “QVQLVESGGGLVQAGGSLRLSCAASGCIGRRYAMGWYRQAPGKERELVAAITSSGGGTYYADSVKGRFTISRDNAKNTVYFQINILTPEDTAVYYCAARVYGSHFYYRTRPYDYWGQGTQVTVSS” was “high polyreactivity”.
